Results as given in paper PMC11339278 (2024).

T1: SNX17 full length (residue 1-470) with an intramolecular decaHis tag (human, UniProt Q15036 1-470)
T1 chain: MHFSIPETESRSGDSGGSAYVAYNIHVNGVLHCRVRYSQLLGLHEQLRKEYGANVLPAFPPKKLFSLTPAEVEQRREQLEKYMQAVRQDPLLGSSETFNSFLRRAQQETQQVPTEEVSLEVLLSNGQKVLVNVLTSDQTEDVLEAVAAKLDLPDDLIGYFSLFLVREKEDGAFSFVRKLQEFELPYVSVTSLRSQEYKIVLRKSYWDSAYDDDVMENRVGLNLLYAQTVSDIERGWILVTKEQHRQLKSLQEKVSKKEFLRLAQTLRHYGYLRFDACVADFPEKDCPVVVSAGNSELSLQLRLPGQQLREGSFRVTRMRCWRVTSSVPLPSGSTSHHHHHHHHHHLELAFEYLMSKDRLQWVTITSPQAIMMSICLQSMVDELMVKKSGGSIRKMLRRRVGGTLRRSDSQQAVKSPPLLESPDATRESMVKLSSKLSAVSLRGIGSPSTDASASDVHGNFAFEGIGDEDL

T2: SNX17ΔC (residue 1-390) with an intramolecular decaHis tag (human, UniProt Q15036 1-390)
T2 chain: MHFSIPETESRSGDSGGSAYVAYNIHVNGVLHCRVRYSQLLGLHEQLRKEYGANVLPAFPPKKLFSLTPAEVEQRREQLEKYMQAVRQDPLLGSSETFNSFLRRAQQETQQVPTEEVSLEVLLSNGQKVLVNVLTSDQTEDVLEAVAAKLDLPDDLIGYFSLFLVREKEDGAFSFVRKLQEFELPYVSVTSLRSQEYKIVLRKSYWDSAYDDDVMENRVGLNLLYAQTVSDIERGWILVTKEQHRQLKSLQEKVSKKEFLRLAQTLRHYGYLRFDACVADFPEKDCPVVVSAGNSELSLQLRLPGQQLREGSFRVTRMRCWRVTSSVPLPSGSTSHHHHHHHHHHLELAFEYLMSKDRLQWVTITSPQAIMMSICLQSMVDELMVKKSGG


Columns and labels:
[1] = biological target: CCDC22 (endogenous); assay: GFP-nanotrap pull-down, quantitative western blot; settings: HEK293T cells, transient co-transfection; n = 3; parent: est. 1.0; read off a plot
[2] = biological target: CCDC93 (endogenous); assay: GFP-nanotrap pull-down, quantitative western blot; settings: HEK293T cells, transient co-transfection; n = 3; parent: est. 1.0; read off a plot
[3] = biological target: VPS29 (endogenous); assay: GFP-nanotrap pull-down, quantitative western blot; settings: HEK293T cells, transient co-transfection; n = 3; parent: est. 1.0; read off a plot
[4] = biological target: T1, SNX17 full length (residue 1-470) with …; assay: ITC
[5] = biological target: T2, SNX17ΔC (residue 1-390) with an …; assay: ITC
[6] = biological target: SNX17 full length (residue 1-470) with an intramolecular decaHis tag (human) (UniProt Q15036); assay: ITC; APP or LRP1 peptide at 250 μM injected into 20 μM SNX17 FL or SNX17ΔC; 13 x 3.22 μL; 10 °C; 500 mM NaCl, 100 mM Tris pH 8.0, 5% glycerol; single site binding model
[7] = biological target: SNX17ΔC (residue 1-390) with an intramolecular decaHis tag (human) (UniProt Q15036); assay: as above
[8] = biological target: SNX17 full length (residue 1-470) with an intramolecular decaHis tag (human) (UniProt Q15036); assay: ITC; Microcal PEAQ, 10 °C, 500 mM NaCl, 100 mM Tris pH 8.0, 5% glycerol; 250 µM APP or LRP1 peptide, or 2 mM SNX17 tail peptide, injected into 20 µM SNX17 FL or SNX17ΔC; single site binding model
[9] = biological target: SNX17ΔC (residue 1-390) with an intramolecular decaHis tag (human) (UniProt Q15036); assay: ITC; 2 mM SNX17 tail peptide injected into 20 μM SNX17 FL or SNX17ΔC; 13 x 3.22 μL; 10 °C; 500 mM NaCl, 100 mM Tris pH 8.0, 5% glycerol; single site binding model

| Molecule | ratio to parent [1] | ratio to parent [2] | ratio to parent [3] | Kd [4] | Kd [5] | Kd [6] | Kd [7] | fold lower affinity than for SNX17ΔC [8] | Kd [9] |
| --- | --- | --- | --- | --- | --- | --- | --- | --- | --- |
| VPS35L-GFP (from UniProt Q7Z3J2-1) W280A | 0.75 | 0.73 | 0.62 | – | – | – | – | – | – |
| VPS35L-GFP (from UniProt Q7Z3J2-1) K283E | 0.95 | 0.88 | 0.97 | – | – | – | – | – | – |
| VPS35L-GFP (from UniProt Q7Z3J2-1) R248A | 1 | 1.1 | 1.1 | – | – | – | – | – | – |
| NGYENPTYKFFEQM [APP cargo recognition peptide (755-768)] | – | – | – | 14.8 µM | 4.74 µM | 16 µM | 7.03 µM | 2 fold | – |
| VEIGNPTYKMYEGG [LRP1 cargo recognition peptide (4466-4479)] | – | – | – | 13.6 µM | 3.64 µM | 14.3 µM | 4.6 µM | 2 fold | – |
| SASDVHGNFAFEGIGDEDL [synthetic peptide of the SNX17 tail (452-470)] | – | – | – | – | 116 µM | – | – | – | 189 µM |
